Test results as given in the domain aggregation screens of Martell et al. (2025).

Test: soluble fraction after stress (log2 fold change); higher = more stays soluble; pooled small domains, quantitative proteomics
Settings: stress: 50 degC
Summary of the method: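 After stress at 50°C, the amount of each protein still soluble was measured. This was done on pooled custom libraries of small protein domains, using high-throughput quantitative proteomics. The figure given is a base-two log fold change and stands for aggregation propensity, with higher values meaning more protein stays in solution.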

Going from “HMSNDRSYLARLQDYYAEHRALPSYASIGALLGLRSKSSVAALVARLKLAGFVESTPDRRLAPTRRFF” to “HMQISGSEELEKIVQTVLEKNTDVVEEYKSGKTKVFAFLMGQVMKESRGKANPRLAKDILEKFLA”, the “soluble fraction (log2)” value rises from -3.24 to -0.0362.

Compared with “HMTGVPYLVRVKITDLHIRSGPGTNYASKGFIAPGAYTIVEESTGQGAALWGKLKSGKGWIALGYTEK”, “HMGNLPPAVINARIKVSPAGRGVFVGFDKGSTSTEAKYADAIRGYLPNIEFNKDDHESVVTVPFNFR” is higher in “soluble fraction (log2)” value: -1.09 for the first, -0.032 for the second.

Compared with “HMETMSYAEFNAIRIGKAKLMLADPSLKIWEISEAVGYTDTAHFARTFKKLEGMSANEYRNSL”, “HMELSPAELGERLKVARETANVTQDAGAKAAGIARTTLVAIEKGQRSARIDELQTLSRRYGVSVNSLLRR” is higher in “soluble fraction (log2)” value: -1.12 for the first, -0.135 for the second.

Compared with “HMGYLNDRQRLIKDFITENQPLKVSDLVKQFPNIGLSTLKKDLQYLRGEQVLTMIGKGKGSVYVLNKK”, “HMEEPFRIEKKGDIYYISGKTVERLVAMTDLDNDSAVKRLQRTLKRMGVEDALREHGINPGDTVVIGNYEF” is higher in “soluble fraction (log2)” value: -0.446 for the first, -0.0245 for the second.

First: HMNEPSSYGYAISVALDRNGLGTVKGGTLYPLLARLEQAAHVETRWEAGDGGPGRKYYTITDSGRS
Second: HMELTVPDFTNMSLEDAINLAEKRDVRLEVTDSVFVKRLGRGFIYSQNPVAGSKVKKGRRILITINAIN
The “soluble fraction (log2)” value of the first is higher: -0.201 for the first, -2.53 for the second.

Compared with “HMDNWAALLSEREVQVSRLVANGASNKEIADHLAITERTVKAHLTAVFEKLGVRDRLQLSLRVNGL”, “HMYTPDYLSDLMVRMAHHSTAIEGNTLTQGETKSVLVDGYIPRAMDMRELNEVLNYKAFMTFLVE” is higher in “soluble fraction (log2)” value: -2.01 for the first, -0.0969 for the second.

Going from “HMETIGENIKTYRQKKGYTQEEVANRLHVTRQTISKWEKNYSIPDAEVLVKLADVLEVQTSQLLGV” to “HMTPVSQIATKDIEEKIDSLSDEYKDPFILHFKGFKYKEIADQLDIPIGTVKSRIFIARKKLIDLLPDY”, the “soluble fraction (log2)” value falls from 0.102 to -0.115.

First: HMSAQDLIVKTDATQVEARVLEISPEQIRYKRFSNPDGPTYVLPVDAVDYIRYANGETDSFR
Second: HMASGLITEEQAKSKALAHAGLSASQVNFIWVKQDWEDGRRVYEVEFYTDDYQEYDYEIDARTGEILSFDY
The “soluble fraction (log2)” value of the first is higher: -0.0039 for the first, -1.97 for the second.

Compared with “HMKKASLSTVEKKLMKQNYSNDTMENRLARVESYMFGTVFSSDDTQTRIDRISSAYNAQKSS”, “HMPRRSYLDARKKLLGMLNSPDFNSGDQIPAERELSEVLGISRVTVRKIITELIDEGVLERRGNQGTWLVD” is lower in “soluble fraction (log2)” value: 0.142 for the first, -0.378 for the second.

First: HMSSKFKIVGEILSIKKSDILYIIEILSNNEVVKATAVEDEIKDLKIGDKILLSSKAFNPIVNK
Second: HMPLNAFDVAGYRLGYGGGYFDRTLAALSPRPLAVGVGFEINRLESIRPEAHDQRLDWIVTENGAFRPA
The “soluble fraction (log2)” value of the first is higher: -0.487 for the first, -0.867 for the second.

Going from “HMANGTVKWFNTTKGFGFIAPETGGKDVFVHISAVERSGLTGLADDQKVTFDVEAGRDGRESAVNLAL” to “HMQQSVSSLVRRYMLQTIPGINFSLKSTALALNMSDRTLQRKLLSENTSYQIILDDVRKELAIKYLKE”, the “soluble fraction (log2)” value falls from 0.0396 to -3.19.

Compared with “HMANSLLVTAQAGGQKLFNFLKRSLHAENNEIHRWIRTGQVRINKKRTKAFDIVHENDEIRIPPFALNR”, “HMDVAWDAIKAKLKEVVDAEDKAHPLNDDQIVKALGESGITIARRTIAKYRDLLGIPPARKRKA” is higher in “soluble fraction (log2)” value: -0.284 for the first, 0.0649 for the second.

Compared with “HMAVKLELYRVFKEVAETGNISAAAKNLYISQSAVSQSIKQLETALQARLFARSPRGVTLTGEGQMLYQYV”, “HMFTDEELEHIRSALIQAGIRLSKELGLQKMSVEKLTAAVGIAKGSFYMFFGSKEDFILEVAEYTGAQ” is higher in “soluble fraction (log2)” value: -1.44 for the first, -0.582 for the second.

First: HMNDRLAGMEGQRGEAATNFDQGEGKVKVGDTVWLAKQSDSTVIVEGDQIVVTGSENGLLKVRL
Second: HMTANTLDLTYSQFLENVKNGSVNDVTIRGNNVSGNFSDGRKFKTYAVNDPTLVEKLTKMGVNISAAPL
The “soluble fraction (log2)” value of the first is lower: -0.165 for the first, 0.267 for the second.

“HMDLGTHMRLIVPTGMRVDHIVYESNGKNISVDHDRSISVRWNGEVVSIDVSPLPSRPDFDVLIYMSPK” and “HMKPGWEDIFRMNQIQLEDAVRTVNRDDTLAPTKKAYLIQNLLASRWIVGNQLQAQKDKTTE” are within 0.2 log units of each other in “soluble fraction (log2)” value: -0.0114 for the first, -0.0813 for the second.

Compared with “HMTRLDLQNAFRVLPPEIQPAAVLFFLQERKQREIAKILGIGLPLVKYRIRKARELLAQFLRKEA”, “HMSGEPVKSTLPGNVFKILVAVGDSVKKGQRMFVLEAMKMEIDVNAPKDGLVTSIEVQQGQTVANGQILAK” is higher in “soluble fraction (log2)” value: -0.241 for the first, 0.0741 for the second.

Going from “HMKHKHHIIPKHKGGTDHPDNLIELTVEQHAKAHWVEFMLDGREEDYWAWKGLEGVASKKDIIYALSKR” to “HMPSLILADEPTGNLDSRNSSEVIALLKNASKRYAQTIIMITHNRSIAQSADRVLQVSDGVLTDMG”, the “soluble fraction (log2)” value falls from 0.351 to 0.0494.

First: HMKTYEILFDILSRESDYISGEKLAQELGISRTSIWKAIQHLEKEGVHIESVKNKGYKLLSGDLLIAEKI
Second: HMQEPVHFTRRERQVLSLILSGQATAEIAKTLGIANATVTTYKKSLYSKSGTNSLSRLLIWAMVRR
The “soluble fraction (log2)” value of the first is lower: -1.14 for the first, -0.27 for the second.

Going from “HMNNLELSEEEKSVLTIIEKEGLIELDKLKTKLELSNKKWDKTLKFLTKNKLAKVVKNDNGLFVEL” to “HMSTADGGYPSIVINDGRVIDTNLQKLGLDRSWLSAELKRQGKGSEKDIFLMTVNQRREVYISVKEA”, the “soluble fraction (log2)” value falls from 0.0812 to -0.27.

“HMIPRGFSRYYILELLQKKPHTGKEIIDNAIKESGGRWNPSPGLIYPLLGRLLDENLIEETNDGKYK” and “HMHPEETVNLILDAAFRLFLEKGYEHTSIQDIIGQLGGLSKGAIYHHFNSKEDILIAVTDRMTA” are within 0.2 log units of each other in “soluble fraction (log2)” value: -1.72 for the first, -1.81 for the second.

Going from “HMEIVSTEEKIKRAAEQVFLLRGLEGARMQEIADVAGINKAMLHYYFRNKETLFDVILSEKL” to “HMAERLQARIDAPGVRLDKALAETFPTLSRARLQALLADGAVTRDGQTVSNGSAKAQPGLYVVALPPVA”, the “soluble fraction (log2)” value rises from -1.51 to 0.381.

Going from “HMDLLVWRVADEDAGERIDKLVVDSLDDVSRTAVQQWIKDGLVTVNGKTVKPNYKAAAGDEVAVSVPEPE” to “HMDEDLQEALRKLNPIQANERKLLLKMLEQHRWNVSSVAKAFDVSRNTLYRRLHKLHIPLSNPSE”, the “soluble fraction (log2)” value falls from 0.149 to -0.417.

“HMDDADPYEILGVERDAEDAEIKRAYHDLIRENHPDRLMAEGLPQEMIDVANEKVAFINDAYDRIEKLRGM” and “HMGTVSSGSSSTDTPFSLGEIVRHKVFGEGVVLSIEGQGDASRIQINFNTAGTKWLVTAYADLEK” are within 0.2 log units of each other in “soluble fraction (log2)” value: -0.241 for the first, -0.219 for the second.

Going from “HMVSKEELANSIYENKTADELGNIVLRKGKYSGEMLRTIYVKDIGYLEWHSKQSYEYSNAVKWYLKKLE” to “HMPANLTPDYFKAEQWYRSASTNEEKMLALEQMLAVMPKHKGTEHLQADLKRKLSQLKDASAQ”, the “soluble fraction (log2)” value rises from -1.21 to 0.148.

Going from “HMDEYTAVDSRLDLELAMKRLKPEEAEVLRLVFDYGLPQRAIAERLGVSQMSVSRMQRRAIGKLKRWLSDN” to “HMKPTVKGHFTRKESNVGGYADVRGWGVAGTPSMMANQSKDTRRFSTLIVPGRSVNVHPSPTKEAIIWWQS”, the “soluble fraction (log2)” value rises from -1.08 to -0.0091.

Going from “HMKTTKLEELDMQKEFILKNGKYGFGVYIGGKYIGLTDIGTVNSFKDSLQLPVVSLSDIDFKTFAEKF” to “HMVELVKVPALQGETVDEAIADIKDAGLEPGQVRYVESDLPKDTVTYQSVDAGEQVKAGTVINLQASKGP”, the “soluble fraction (log2)” value rises from -0.757 to 0.251.

First: HMTAYEGLPVTLIIDGRVFQQNLQKMNLSVEWLRLELKKFGVTNLKEVLFASLDTEGKLFYQLKT
Second: HMQLLDIGSAVRIIREPYFGRLGTVVELPPELMEIESGTHARVLKAKLDDGTVAVVPRANVEIIVE
The “soluble fraction (log2)” value of the first is higher: 0.0485 for the first, -0.171 for the second.

“HMSAEDYMEMIYRLSQENGFTRVNDLASALNVQPPSVTRMIQKLAELNLIKYEKYGVIMLQPYGIEVGRSL” and “HMFPNSFSEREKEVVDLLLQAKSNKQIAFSLGITNRTVEYHLGNIFAKLGVSSRSEAILTITNYKNQ” are within 0.2 log units of each other in “soluble fraction (log2)” value: -1.91 for the first, -2.01 for the second.

Compared with “HMNHLSYEQRLKIKEMLDGGFKKIDIARALGVHNATIYREIERGSVNGIYNPNKSEEQYRDHLSEK”, “HMDNVLGKSGKVIFVNEEINSYGRAFIPGHGEWNIRTKSDQNIHINDGIKVIERDGITLVVEL” is lower in “soluble fraction (log2)” value: 0.255 for the first, -1.14 for the second.

First: HMDLANRSLDRGITILESLARNGASSLADLHRDSGIAKSTIRRLLGTLIQHRLVRRSVADGLYRVTIPLPA
Second: HMIETIQVPRAFNDWHEQADKTKSVFEVYAEIEASENEKLIAWVRNNQNEFAKIWLGALIPELE
The “soluble fraction (log2)” value of the first is higher: -1.18 for the first, -1.39 for the second.

Compared with “HMTRQRQLIYNIIQRADDHPTAEMIYARAKAEMPSIAFGTVYRNLKLMVDAGEILHIPVAGEPDRYDK”, “HMSAAPVGPWALSEFLDAVEKDSVERVTFDDAGKALVAVDADGGRHRVEILPSEGPEILAALRKHSVQFA” is higher in “soluble fraction (log2)” value: -1.98 for the first, 0.0953 for the second.

“HMADLIVFTTDANKEKKVDDETYFYLDVVSDGKLVENYELTEKQYNYIKDLGVGEYVYNEKGKLDSYTAFT” and “HMAIDLPVTTVNGKDYYYYDVQPKETIFSLSQRLGISREEIISYNPGVDGGLKAYTRLYFPVESGL” are within 0.2 log units of each other in “soluble fraction (log2)” value: -0.00687 for the first, -0.201 for the second.

Going from “HMRGFGYVRRLPSKRYQASYAGPDLQRHVAPTTFTTKADAESWLGAERKVVESGSWRPPAVREAEARLS” to “HMGGAYATVKLSSSSSQLNVRASASTASRVVARLSHGFRVEVLGVSGDWVKIRALGVEGYVARAYLALEGE”, the “soluble fraction (log2)” value falls from 0.357 to -0.374.

Compared with “HMQIDDSVELSAIVEKLLAANPEQVEQLKNGKTKVLGYFVGLAMKETQGRANPQKVNELIQTHL”, “HMYHNKFADLAGFIAFNEKNEEIFTFGKYKGQNVKEVFQRDIGYYGWLQNADFPLYTKKVFTAIQLRSR” is lower in “soluble fraction (log2)” value: -0.174 for the first, -2.16 for the second.

Going from “HMEMDPKELGRQVLAKRKEKGWSQEQLGKMAEISRNYVSQIERGEADSISIKIINRLAIALGVSPSDLGE” to “HMKYYIYQGVGASGELTKIAEVTDQKTYTVTGLQAKTTYRFAVSSYNGLRESTKSNIVTVTT”, the “soluble fraction (log2)” value falls from 0.0486 to -0.313.

First: HMSTISPNAFNFLQQNLNKFSDDAEGKMIKDILSKTTYDEYVKNEKSKTDFNSLLRRQTTTGDDNLNRYIN
Second: HMAKKDVESTLGGRLRVARVRAGLTQVELARMLGMNSVSLSNVEGGRRGLSMKQLVRVAKILEVPVAYLLG
The “soluble fraction (log2)” value of the first is higher: 0.0247 for the first, -1.65 for the second.

“HMSIEHVPGYTTLSKREQEIVHALLTRKTPEELADDLSISINTLNKHISHIYHKLGIRGRMQLFDYA” and “HMNNLNDIIEIIRIYAKNYARNNPSWNHSELINRIRDKALGEAEDYNIRLSEEDLALITELSLRGL” are within 0.2 log units of each other in “soluble fraction (log2)” value: -0.284 for the first, -0.474 for the second.

For “HMPFNLKSLADRLSHVFPGLVKMRDDIGAIIVMDKIKVTEHGVTEGGGLAADRVRAVYNEFIKEY”, the “soluble fraction (log2)” value was 0.195.
